In the assay the target is BoNT/A receptor on mouse brain synaptosomes (mouse).

Substance “active BoNT/A toxin (Metabiologics, Inc.), unlabeled (from UniProt P0DPI1 2-1296)” showed a percent inhibition at 2.0 µg of 78%.

Source of the values: patent US20080274480A1.
